Results as given in article doi:10.1101/2023.10.09.561572.

Target: T1, SERF2 (Homo sapiens) (UniProt P84101)
T1 sequence: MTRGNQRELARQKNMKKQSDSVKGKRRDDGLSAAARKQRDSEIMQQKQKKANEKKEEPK
Assay: fluorescence polarization
Settings: FP: 20 mM NaPi pH 7.4, 100 mM KCl, 25 C (20-100 nM FAM-RNA or 200 nM AF488-SERF2); NMR: same buffer, 4 C

TERRA60 rG4 gave a Kd of under 1000 nM.
polyG RNA gave a Kd of under 1000 nM.
